Values joined by “and” are separate entries in the source; they are usually repeats but may differ in a detail not shown here. Equal values may be shown once.
Key:
[1] = molecular target: the molecule itself; experiment: negative-stain electron microscopy
cryo-EM structure = molecular target: the molecule itself; experiment: cryo-EM structure

Row | Protein | binding result [1] | stoichiometry N (cryo-EM structure)
1 | FliF(∆214–220) (natural protein, Salmonella enterica serovar Typhimurium) MSATASTATQPKPLEWLNRLRANPRIPLIVAGSAAVAIVVAMVLWAKTPDYRTLFSNLSDQDGGAIVAQLTQMNIPYRFANGSGAIEVPADKVHELRLRLAQQGLPKGGAVGFELLDQEKFGISQFSEQVNYQRALEGELARTIETLGPVKSARVHLAMPKPSLFVREQKSPSASVTVTLEPGRALDEGQISAVVHLVSSAVAGLPPGNVTLVTQSNTSGRDLNDAQLKFANDVESRIQRRIEAILSPIVGNGNVHAQVTAQLDFANKEQTEEHYSPNGDASKATLRSRQLNISEQVGAGYPGGVPGALSNQPAPPNEAPIATPPTNQQNAQNTPQTSTSTNSNSAGPRSTQRNETSNYEVDRTIRHTKMNVGDIERLSVAVVVNYKTLADGKPLPLTADQMKQIEDLTREAMGFSDKRGDTLNVVNSPFSAVDNTGGELPFWQQQSFIDQLLAAGRWLLVLVVAWILWRKAVRPQLTRRVEEAKAAQEQAQVRQETEEAVEVRLSKDEQLQQRRANQRLGAEVMSQRIREMSDNDPRVVALVIRQWMSNDHE | binds | –
2 | FliF(∆221–227) (natural protein, Salmonella enterica serovar Typhimurium) MSATASTATQPKPLEWLNRLRANPRIPLIVAGSAAVAIVVAMVLWAKTPDYRTLFSNLSDQDGGAIVAQLTQMNIPYRFANGSGAIEVPADKVHELRLRLAQQGLPKGGAVGFELLDQEKFGISQFSEQVNYQRALEGELARTIETLGPVKSARVHLAMPKPSLFVREQKSPSASVTVTLEPGRALDEGQISAVVHLVSSAVAGLPPGNVTLVDQSGHLLRDLNDAQLKFANDVESRIQRRIEAILSPIVGNGNVHAQVTAQLDFANKEQTEEHYSPNGDASKATLRSRQLNISEQVGAGYPGGVPGALSNQPAPPNEAPIATPPTNQQNAQNTPQTSTSTNSNSAGPRSTQRNETSNYEVDRTIRHTKMNVGDIERLSVAVVVNYKTLADGKPLPLTADQMKQIEDLTREAMGFSDKRGDTLNVVNSPFSAVDNTGGELPFWQQQSFIDQLLAAGRWLLVLVVAWILWRKAVRPQLTRRVEEAKAAQEQAQVRQETEEAVEVRLSKDEQLQQRRANQRLGAEVMSQRIREMSDNDPRVVALVIRQWMSNDHE | binds | –
3 | FliF(∆165–167) (natural protein, Salmonella enterica serovar Typhimurium) MSATASTATQPKPLEWLNRLRANPRIPLIVAGSAAVAIVVAMVLWAKTPDYRTLFSNLSDQDGGAIVAQLTQMNIPYRFANGSGAIEVPADKVHELRLRLAQQGLPKGGAVGFELLDQEKFGISQFSEQVNYQRALEGELARTIETLGPVKSARVHLAMPKPSLEQKSPSASVTVTLEPGRALDEGQISAVVHLVSSAVAGLPPGNVTLVDQSGHLLTQSNTSGRDLNDAQLKFANDVESRIQRRIEAILSPIVGNGNVHAQVTAQLDFANKEQTEEHYSPNGDASKATLRSRQLNISEQVGAGYPGGVPGALSNQPAPPNEAPIATPPTNQQNAQNTPQTSTSTNSNSAGPRSTQRNETSNYEVDRTIRHTKMNVGDIERLSVAVVVNYKTLADGKPLPLTADQMKQIEDLTREAMGFSDKRGDTLNVVNSPFSAVDNTGGELPFWQQQSFIDQLLAAGRWLLVLVVAWILWRKAVRPQLTRRVEEAKAAQEQAQVRQETEEAVEVRLSKDEQLQQRRANQRLGAEVMSQRIREMSDNDPRVVALVIRQWMSNDHE | binds | –
4 | FliF (flagellar MS-ring protein), wild type (natural protein, Salmonella enterica serovar Typhimurium, UniProt P15928 1-560, looked up) MSATASTATQPKPLEWLNRLRANPRIPLIVAGSAAVAIVVAMVLWAKTPDYRTLFSNLSDQDGGAIVAQLTQMNIPYRFANGSGAIEVPADKVHELRLRLAQQGLPKGGAVGFELLDQEKFGISQFSEQVNYQRALEGELARTIETLGPVKSARVHLAMPKPSLFVREQKSPSASVTVTLEPGRALDEGQISAVVHLVSSAVAGLPPGNVTLVDQSGHLLTQSNTSGRDLNDAQLKFANDVESRIQRRIEAILSPIVGNGNVHAQVTAQLDFANKEQTEEHYSPNGDASKATLRSRQLNISEQVGAGYPGGVPGALSNQPAPPNEAPIATPPTNQQNAQNTPQTSTSTNSNSAGPRSTQRNETSNYEVDRTIRHTKMNVGDIERLSVAVVVNYKTLADGKPLPLTADQMKQIEDLTREAMGFSDKRGDTLNVVNSPFSAVDNTGGELPFWQQQSFIDQLLAAGRWLLVLVVAWILWRKAVRPQLTRRVEEAKAAQEQAQVRQETEEAVEVRLSKDEQLQQRRANQRLGAEVMSQRIREMSDNDPRVVALVIRQWMSNDHE | – | 33 and 34
5 | FliF(G217P) (natural protein, Salmonella enterica serovar Typhimurium) MSATASTATQPKPLEWLNRLRANPRIPLIVAGSAAVAIVVAMVLWAKTPDYRTLFSNLSDQDGGAIVAQLTQMNIPYRFANGSGAIEVPADKVHELRLRLAQQGLPKGGAVGFELLDQEKFGISQFSEQVNYQRALEGELARTIETLGPVKSARVHLAMPKPSLFVREQKSPSASVTVTLEPGRALDEGQISAVVHLVSSAVAGLPPGNVTLVDQSPHLLTQSNTSGRDLNDAQLKFANDVESRIQRRIEAILSPIVGNGNVHAQVTAQLDFANKEQTEEHYSPNGDASKATLRSRQLNISEQVGAGYPGGVPGALSNQPAPPNEAPIATPPTNQQNAQNTPQTSTSTNSNSAGPRSTQRNETSNYEVDRTIRHTKMNVGDIERLSVAVVVNYKTLADGKPLPLTADQMKQIEDLTREAMGFSDKRGDTLNVVNSPFSAVDNTGGELPFWQQQSFIDQLLAAGRWLLVLVVAWILWRKAVRPQLTRRVEEAKAAQEQAQVRQETEEAVEVRLSKDEQLQQRRANQRLGAEVMSQRIREMSDNDPRVVALVIRQWMSNDHE | binds | –
6 | FliF(G217A) (natural protein, Salmonella enterica serovar Typhimurium) MSATASTATQPKPLEWLNRLRANPRIPLIVAGSAAVAIVVAMVLWAKTPDYRTLFSNLSDQDGGAIVAQLTQMNIPYRFANGSGAIEVPADKVHELRLRLAQQGLPKGGAVGFELLDQEKFGISQFSEQVNYQRALEGELARTIETLGPVKSARVHLAMPKPSLFVREQKSPSASVTVTLEPGRALDEGQISAVVHLVSSAVAGLPPGNVTLVDQSAHLLTQSNTSGRDLNDAQLKFANDVESRIQRRIEAILSPIVGNGNVHAQVTAQLDFANKEQTEEHYSPNGDASKATLRSRQLNISEQVGAGYPGGVPGALSNQPAPPNEAPIATPPTNQQNAQNTPQTSTSTNSNSAGPRSTQRNETSNYEVDRTIRHTKMNVGDIERLSVAVVVNYKTLADGKPLPLTADQMKQIEDLTREAMGFSDKRGDTLNVVNSPFSAVDNTGGELPFWQQQSFIDQLLAAGRWLLVLVVAWILWRKAVRPQLTRRVEEAKAAQEQAQVRQETEEAVEVRLSKDEQLQQRRANQRLGAEVMSQRIREMSDNDPRVVALVIRQWMSNDHE | binds | –
7 | FliF(G217W) (natural protein, Salmonella enterica serovar Typhimurium) MSATASTATQPKPLEWLNRLRANPRIPLIVAGSAAVAIVVAMVLWAKTPDYRTLFSNLSDQDGGAIVAQLTQMNIPYRFANGSGAIEVPADKVHELRLRLAQQGLPKGGAVGFELLDQEKFGISQFSEQVNYQRALEGELARTIETLGPVKSARVHLAMPKPSLFVREQKSPSASVTVTLEPGRALDEGQISAVVHLVSSAVAGLPPGNVTLVDQSWHLLTQSNTSGRDLNDAQLKFANDVESRIQRRIEAILSPIVGNGNVHAQVTAQLDFANKEQTEEHYSPNGDASKATLRSRQLNISEQVGAGYPGGVPGALSNQPAPPNEAPIATPPTNQQNAQNTPQTSTSTNSNSAGPRSTQRNETSNYEVDRTIRHTKMNVGDIERLSVAVVVNYKTLADGKPLPLTADQMKQIEDLTREAMGFSDKRGDTLNVVNSPFSAVDNTGGELPFWQQQSFIDQLLAAGRWLLVLVVAWILWRKAVRPQLTRRVEEAKAAQEQAQVRQETEEAVEVRLSKDEQLQQRRANQRLGAEVMSQRIREMSDNDPRVVALVIRQWMSNDHE | binds | –
